From the nanobody polyreactivity screen of Harvey et al. (2022)

Test: yeast display, Sf9 membrane polyspecificity reagent, FACS + sequencing; frameworks hold sequencing errors
How it was run: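 Nanobodies from a synthetic yeast display library (Saccharomyces cerevisiae BJ5465), induced 36–48 hours with galactose, were stained 1 hour at 4 °C with 10% biotinylated, detergent-solubilized Sf9 membrane reagent, enriched on streptavidin microbeads, then FACS-sorted. Anti-HA (expression) and streptavidin (reagent binding) fluorescence set low and high (top ~1%) gates. Polyreactivity labels come from the gate of origin. Genes were colony-PCR amplified, MiSeq 2 × 250 sequenced and filtered by CDR length.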

Sequence | polyreactivity (PSR sort gate)
QGQLVESGGGLFQAGGSLSLSCASSGRTITHNVMGWYRQAPGKEMELVAGISSTGGSTYYADSVKGRFTISRDNSKNTVYLQMNSLKPEDTAVYYCAKEYYDGYFPSFDYEYWGQGTQVTVSS | low polyreactivity
QGQLVESGGGLVQAGCSLRLSCAASGSTFRRYAMGWDRQAPGKERELVATINWSGGRTYYADSVKGRFTISRDNAKKTGSLQMNRLKPVDTAVYYCAKADYYGYHYYYWGQGTQVTVSS | high polyreactivity
QGQLVESGGGLVQAGGRLRLSCAASGFTFRHNAMGWYRQAPGKETELVAAISWSDGSTYADSVKGRFTISRDNAKNTVYLQMNSLKPEDTAVYYCNADYPSYRYFTGRDYWGQGTQVTVSS | low polyreactivity
QGQLVESGGGLVQAGGRLRLSCAASGSTLWRYAMGWYRQAPRKERELVAGISRGGGSTYYADSVKGRFTISRDNAKNTVYLQMYSLKPEDTGVYYCATPVNQVRGAFDYWGQGTQVSVSS | low polyreactivity
QGQLVESGGGLVQAGGSIRLSCAASGYIFRRYAMGWYRQAPGKEREFVATISRSGGSTYYADSVKGRFTISRDNAKNTVYLQMNSLKPEDTAVYYCNAGYGYGYPKYDYWGQCTQVTVSS | high polyreactivity
QGQLVESGGGLVQAGGSLLLSCAASGRTFYNYYTMGLYRQAPGKERELVAAISRSGSTNYADSVKGRFTISRDTAKNTVYLQMNSLKPEDTAVYYCARSYRSDGSRFGYWGQGTQVTVSS | low polyreactivity
QGQLVESGGGLVQAGGSLRFSCAASGSTFVWYAMGWYRQAPGKERELVAGINRSGGSRYYADSVKGRFTILRDNAKNTVYLQMNSLKPEDTAVYYCAARGKRFRNSRIAYDYWGKGTQVTVSS | high polyreactivity
QGQLVESGGGLVQAGGSLRLSCAAAGFTFGSYAMGWYRHAPGKERELFARISSDGSTNYADSVKGRFTISSDNAKNTVYLQMNSLKPEDTAVYYCNADRQYTCSLVFFSSDYDYWGLGTQVTVSS | low polyreactivity
QGQLVESGGGLVQAGGSLRLSCAASGFIFYKNAMGWYRQAPGKARELVAAITWSGGSTYYADSVKGRFTISRDNAKNTVYLQMNSLKPEDTAVYYCAAGVTWISWVWYDYWGQGTQVTVSS | low polyreactivity
QGQLVESGGGLVQAGGSLRLSCAASGFIYGFYGMGWYRQAPGKEREFVAAIDFIDGDTYYADSVKGRFTISRDNAKNTVYLQMNSLKPEDTAVYYCAAVGSFWQFDYWGQGTQVTVSS | low polyreactivity
QGQLVESGGGLVQAGGSLRLSCAASGFTFAGYARGWYRQAPGKERELVAAINRGGSTYYADSVKGRFTISRDNAKNTVYLQMNSLTPEDTAVYYCAARQEPGWYPDVWWEYDYWGQGTQVTVSS | low polyreactivity
QGQLVESGGGLVQAGGSLRLSCAASGFTFYKNTMGWYRQAPGKERELVAAISSSGSSTYYADSVKGRFTISRDNAKNTVYLQMISLKPEDTAVYYCAACSFAYHDDYWGQGTQVTVSS | high polyreactivity
QGQLVESGGGLVQAGGSLRLSCAASGLTFYYYARGWYRQAPGKERELVATISSRGGSTNYADSVKGRFTISRDNAKNTVYLQMNSLKPEDTAVYYCATDNSGYPRLNYWGQGTHVTVSS | high polyreactivity
QGQLVESGGGLVQAGGSLRLSCAASGRIFVPYGMGWYRQAPGKERELVAAITTGGSTNYADSVKGRFTISRDNAKNTVYLQMNSLKPEDTAVYYCAVDWYPQLIYSFNSELEYWGQGTQVTVSS | low polyreactivity
QGQLVESGGGLVQAGGSLRLSCAASGRISYYYAMGWYRQAPGKERELVAAISRRSTSTYYADSVKGRFTISRDYAKNTVYLQMNSLKPEDTAVYYCAARYIRAFSWRMDYWGQGTQVTVSS | high polyreactivity
QGQLVESGGGLVQAGGSLRLSCAASGRIVRPNAMGWYRQAPGKETEFVAAISSGGSTYYADSVKGRFTISRDNAKNSVYLQMNSLKPEDTAVYYCAADLSNRPYYRQGYDYWGQGTQVTVSS | high polyreactivity
QGQLVESGGGLVQAGGSLRLSCAASGRIVSVYAMGWYRQAPGKEREFVASISWRGGRTYYADSVKGRFTISRDNAKNTVYLQMNSLKPEDTALYYCATGYDYYVRRYYYWGQGTQVSVSS | high polyreactivity
QGQLVESGGGLVQAGGSLRLSCAASGRTFKYYAMGWYRQAPGQERELVAAISYNGGSTFYADSVKGRFTISRDNAKNTVYLQMNSLKPEDTAVYYCAAVYRYRNRRDYDYWGQGTQVTVSS | high polyreactivity
QGQLVESGGGLVQAGGSLRLSCAASGRTFTYYVMGWSRQAPGKERELVAAISWTGGSTNYADSVMGRFTISRDNAKNTVYLQMNSRKPEDTAVYYCNAGGFFGYGRPGYYWGQGTQVTVSS | low polyreactivity
QGQLVESGGGLVQAGGSLRLSCAASGRTFYLNAMGWYRQAPGKERELVAAINRGTRTYYADSVKGRFTISRDNAKNTVFLQMNSLKPDETAVYYCASVPRYYYSSSYTMDYWGQGTQVTVSS | high polyreactivity
QGQLVESGGGLVQAGGSLRLSCAASGRTLYYYAMGWYRQAPGKERELVASIDWDSGITDYADSVTGRFTISRANAKNTVYLQMNILTPEDTAVYYCAAVRVTKKYSYEYWGQGTQVTVSA | low polyreactivity
QGQLVESGGGLVQAGGSLRLSCAASGSIFLTNAMGWYRQAPGKEREFVAAIDWGGTITYYADSVKGRFTISRDNAKNTVYLQMNSLKPEDTAVYYCNRVFPPTDYEFDSWGQGTQGTVSS | low polyreactivity

Sequence | polyreactivity (PSR sort gate)
QGQLVESGGGLVQAGGSLRLSCAASGSIFPGYTMGWYRQAPGKERELVAVISSDGRTHYADSVKGRFTISRDNAKNTVYLQMNSLKPEDSAVYYCAAAKRAYGYVLHAFYYWGQGTQVTVSS | high polyreactivity
QGQLVESGGGLVQAGGSLRLSCAASGSIFPRYVMGWYRQAPGKERELVAAITTSGGRTYYADSVKGRFTISRDNAKKTVYLQMNSQKPVDTAVYYCAARPWGYRYGSEYVGGDYWGQGTQVTVSS | high polyreactivity
QGQLVESGGGLVQAGGSLRLSCAASGSIFSSNAMGWYRQAPGKQRELVAAIDWDSGSTSYADSVKGRFTISRDNAKNTVYLQMISLKPEDTAVFYCAADEVLSGYYTLDYWGQGTQVTVSS | low polyreactivity
QGQLVESGGGLVQAGGSLRLSCAASGSIFSVNTMGWYRQAPGKERELVATIRTGDSTNYADSVKGRFTISRDNAKNTVYLQMNSLKPEDTAVYYCAADWSSLNFDYWGQGTQVTVSS | low polyreactivity
QGQLVESGGGLVQAGGSLRLSCAASGSIFWDNVMGWSRQAPGKERELVADIDSWDGGSTYYADSVKGRFTISRDNAKNTVYLQMHSRKPEDTAVYYCNTDVLWWRGGDDFWGQGTQVTVSS | low polyreactivity
QGQLVESGGGLVQAGGSLRLSCAASGSILLYYAMGWYRQAPGKEWELVAAITGGGGTNYADAGKGRFTISRDNAKNTVYLQMNSLIPEDTAVYYCAADPSGQFPYSYYNYDYDYWGQGTQVTVSS | low polyreactivity
QGQLVESGGGLVQAGGSLRLSCAASGSILRSYAMGWSIQAPRKVRELVATITRSAGRTYYADSVKGRFTISRDNAKNTVYLQMNSLKPEDTALYYCAACYCDTETGYREYDYWGQGTQVNVSS | low polyreactivity
QGQLVESGGGLVQAGGSLRLSCAASGSTFGYNVMGWYRQATGKERELVAAINYSGVRTYYADSVKGRFTISRDNAKNTVYLQMNSLIPEDTAVYYCNATPTRAVGPYQYNYWGQGTQVTVSS | high polyreactivity
QGQLVESGGGLVQAGGSLRLSCAASGSTFQGYAMGWYRQAPGKERELVAAISGRSGSTYYADSVKGRFTISRDNAKNTVYLQMNSLKPEDTADYYCAAGIPFRQRLRRYYYWGQGSQVTVSS | high polyreactivity
QGQLVESGGGLVQAGGSLRLSCAASGSTFTSSAMGWSRQGPGKERELVAAISRSGGRTYYADSVKGRFTISRDNAKTTVYLQMNSQKPEDTAVYYCAADRSRWGQGTQVTVSS | high polyreactivity
QGQLVESGGGLVQAGGSLRLSCAASGSTFVYYARGWYRQAPGKEREMVAAIRYSGASTYYADSVKGRFTISRDNAKNTVYLQMNSLKPEDTAVYYCAAQPTTRRVPRFSSRARHYYWGQGTQVTVSS | high polyreactivity
QGQLVESGGGLVQAGGSLRLSCAASGSTVSYNAMGCSRPARGKERALVAAISSGGRTYYADSVKGRFTISRDNAKKTVYFQMNSLKPEDTAVYYCAVYETHWGYWYELDYWGQGTQVTVSS | high polyreactivity
QGQLVESGGGLVQAGGSLRLSCAPSGGTFEFYTMGWYRQAPGKERELVAVINASGDSTYYADSVKGRFTISRDNAKNTVYLQMNSLKPEDTAVYYCAADHRGEYDYWGQGTQVTVSS | low polyreactivity
QGQLVESGGGLVQAGGSLRLSCDASGSTFFENTMGWYRQAHGQERELVAAITSGGGRPYYADSVKGRFTISRDNAKNTVYLQLNSLKPEETAVYYCAARARYTRRGRHYDYWGQGTQVTVSS | high polyreactivity
QGQLVESGGGLVQAGGSLRLSSAASGSTHALYTMGWYRQARGKARQLVAAISKNGGRTYYADSVKGRFTISRDNAKNTVYVQMNSLKPEDTAVYYCAAASGSYRGYDYWGQGTQVTVSS | high polyreactivity
QGQLVESGGGLVQAGGSLRLTCAASGSNFVQNAMGWYRPAPGKERELVAVSNSGDSTNYADSVKGRFTISRDNAKNTVYLHMNSLKPEDNAVYYCAVDDVSYYYLRAYNYELSWYGSGLDYWGQGTQVTVSS | low polyreactivity
QGQLVESGGGLVQAGGSLRLTCAASGSTFRWNVMGWYRQAPGKERELVAAISSTGDNTYYADSVKGRFTISRDNAKNTGYLQMNSLKPEDTAVYYCAAGRGARDRARKHGYWGQGTQVTVSS | high polyreactivity
QGQLVESGGGLVQAGGSLSLSCAASGFIFSGYAMGWYRQAPGKERELVAAISTRGGRTYYADSVKGRFTISRDNAKNTVYLQMNSLKPEDTAVYYCAADSLYPELDYWGQGTQVTVSS | high polyreactivity
QGQLVESGGGLVQAGVSLRLSCAASGSTFRDYAMGWYRQAPGKERELVASITSGGSTNYADSVKGRFTISRDNAKNTVYLQMNSLKPEDTAVYYCGAESMPRWFVRYDYWGQGTQVTVSS | low polyreactivity
QGQLVESGGGLVQAVGSLRLSCAASGITLRIYAMGWYRQAPGKEREMVAGITSGGSTNYADSVKGRFTLSRDNAKNTVYLQMNSLKPEDTAVYYCAARQVRTSKLHMGYWGQGTQVTVSS | low polyreactivity
QGQLVESGGRLVQAGGSLRLSCAASGRIFGWYDMGWYREEPGKERELVAAINWSGGSTYYADSVKGRFTISRDNEKNTFYLQMNCLKPEDTAVYYCAADVAQVGYQVGVSEIYPGYEYWGQGTQVNVSS | low polyreactivity
